# US11278600B2, “Human alpha-galactosidase variants” (Codexis, Inc., priority 2014, dated 2022)
# B1: 51 (protein)
# chain: LDNGLARTPTMGWLHWERFMCNLDCQEEPDSCISEKLFMEMAELMVSEGWKDAGYEYLCIDDCWMAPQRDSEGRLQADPQRFPHGIRQLANYVHSKGLKLGIYADVGNKTCAGFPGSFGYYDIDAQTFADWGVDLLKFDGCYCDSLENLADGYKHMSLALNRTGRSIVYSCEWPLYMWPFQKPNYTEIRQYCNHWRNSADIDDSWKSIKSILDWTSFNQERIVDVAGPGGWNDPDMLVIGNFGLSWNQQVTQMALWAIMAAPLFMSNDLRHISPQAKALLQDKDVIAINQDPLGKQGYQLRQGDNFEVWERPLSGLAWAVAMINRQEIGGPRSYTIAVASLGKGVACNPACFITQLLPVKRKLGFYEWTSRLRSHINPTGTVLLQLENTMQMSKDLLL
# modifications: Synthetic Polypeptide sequence of Variant No. 51 of mature Human GLA
# B2: 53 (protein)
# chain: LDNGLARTPTMGWLHWERFMCNLDCQEEPDSCISEKLFMEMAELMVSEGWKDAGYEYLCIDDCWMAPQRDSEGRLQADPQRFPHGIRQLANYVHSKGLKLGIYADVGNKTCAGFPGSFGYYDIDAQTFADWGVDLLKFDGCYCDSLENLADGYKHMSLALNRTGRSIVYSCEWPLYMWPFQKPNYTEIRQYCNHWRNFADIDDSWKSIKSILDWTSRNQERIVDVAGPGGWNDPDMLVIGNFGLSWNQQVTQMALWAIMAAPLFMSNDLRHISPQAKALLQDKDVIAINQDPLGKQGYQLRQGDNFEVWERPLSGLAWAVAMINRQEIGGPRSYTIAVASLGKGVACNPACFITQLLPVKRKLGFYEWTSRLRSHINPTGTVLLQLENTMQMSKDLLL
# modifications: Synthetic Polypeptide sequence of Variant No. 53 of mature Human GLA
# B3: 52 (protein)
# chain: LDNGLARTPTMGWLHWERFMCNLDCQEEPDSCISEKLFMEMAELMVSEGWKDAGYEYLCIDDCWMAPQRDSEGRLQADPQRFPHGIRQLANYVHSKGLKLGIYADVGNKTCAGFPGSFGYYDIDAQTFADWGVDLLKFDGCYCDSLENLADGYKHMSLALNRTGRSIVYSCEWPLYMWPFQKPNYTEIRQYCNHWRNFADIDDSWKSIKSILDWTSDNQERIVDVAGPGGWNDPDMLVIGNFGLSWNQQVTQMALWAIMAAPLFMSNDLRHISPQAKALLQDKDVIAINQDPLGKQGYQLRQGDNFEVWERPLSGLAWAVAMINRQEIGGPRSYTIAVASLGKGVACNPACFITQLLPVKRKLGFYEWTSRLRSHINPTGTVLLQLENTMQMSKDLLL
# modifications: Synthetic Polypeptide sequence of Variant No. 52 of mature Human GLA
# B4: 54 (protein)
# chain: LDNGLARTPTMGWLHWERFMCNLDCQEEPDSCISEKLFMEMAELMVSEGWKDAGYEYLCIDDCWMAPQRDSEGRLQADPQRFPHGIRQLANYVHSKGLKLGIYADVGNKTCAGFPGSFGYYDIDAQTFADWGVDLLKFDGCYCDSLENLADGYKHMSLALNRTGRSIVYSCEWPLYMWPFQKPNYTEIRQYCNHWRNFADIDDSWKSIKSILDWTSFNQERIVDVAGPGGWNDPDMLVIGNFGLSWNQQVTQMALWAIMAAPLFMSNDLRHISPQAKALLQDKDVIAINQDPLGKQGYQLRQGDNFEVWERPLSGLAWAVAMINRQEIGGPRSYTIAVASLGKGVACNPACIITQLLPVKRKLGFYEWTSRLRSHINPTGTVLLQLENTMQMSKDLLL
# modifications: Synthetic Polypeptide sequence of Variant No. 54 of mature Human GLA
# B5: 56 (protein)
# chain: LDNGLARTPTMGWLHWERFMCNLDCQEEPDSCISEKLFMEMAELMVSEGWKDAGYEYLCIDDCWMAPQRDSEGRLQADPQRFPHGIRQLANYVHSKGLKLGIYADVGNKTCAGFPGSFGYYDIDAQTFADWGVDLLKFDGCYCDSLENLADGYKHMSLALNRTGRSIVYSCEWPLYMWPFQKPNYTEIRQYCNHWRNFADIDDSWKSIKSILDWTSFNQERIVDVAGPGGWNDPDMLVIGNFGLSWNQQVTQMALWAIMAAPLFMSNDLRHISPQAKALLQDKDVIAINQDPLGKQGYQLRQGDNFEVWERPLSGLAWAVAMINRQEIGGPRSYTIAVASLGKGVACNPACFITQLLPVKRKLGIYEWTSRLRSHINPTGTVLLQLENTMQMSKDLLL
# modifications: Synthetic Polypeptide sequence of Variant No. 56 of mature Human GLA
# B6: 55 (protein)
# chain: LDNGLARTPTMGWLHWERFMCNLDCQEEPDSCISEKLFMEMAELMVSEGWKDAGYEYLCIDDCWMAPQRDSEGRLQADPQRFPHGIRQLANYVHSKGLKLGIYADVGNKTCAGFPGSFGYYDIDAQTFADWGVDLLKFDGCYCDSLENLADGYKHMSLALNRTGRSIVYSCEWPLYMWPFQKPNYTEIRQYCNHWRNFADIDDSWKSIKSILDWTSFNQERIVDVAGPGGWNDPDMLVIGNFGLSWNQQVTQMALWAIMAAPLFMSNDLRHISPQAKALLQDKDVIAINQDPLGKQGYQLRQGDNFEVWERPLSGLAWAVAMINRQEIGGPRSYTIAVASLGKGVACNPACVITQLLPVKRKLGIYEWTSRLRSHINPTGTVLLQLENTMQMSKDLLL
# modifications: Synthetic Polypeptide sequence of Variant No. 55 of mature Human GLA
# B7: 57 (protein)
# chain: LDNGLARTPTMGWLHWERFMCNLDCQEEPDSCISEKLFMEMAELMVSEGWKDAGYEYLCIDDCWMAPQRDSEGRLQADPQRFPHGIRQLANYVHSKGLKLGIYADVGNKTCAGFPGSFGYYDIDAQTFADWGVDLLKFDGCYCDSLENLADGYKHMSLALNRTGRSIVYSCEWPLYMWPFQKPNYTEIRQYCNHWRNFADIDDSWKSIKSILDWTSFNQERIVDVAGPGGWNDPDMLVIGNFGLSWNQQVTQMALWAIMAAPLFMSNDLRHISPQAKALLQDKDVIAINQDPLGKQGYQLRQGDNFEVWERPLSGLAWAVAMINRQEIGGPRSYTIAVASLGKGVACNPACFITQLLPVKRKLGKYEWTSRLRSHINPTGTVLLQLENTMQMSKDLLL
# modifications: Synthetic Polypeptide sequence of Variant No. 57 of mature Human GLA
# B8: 58 (protein)
# chain: LDNGLARTPTMGWLHWERFMCNLDCQEEPDSCISEKLFMEMAELMVSEGWKDAGYEYLCIDDCWMAPQRDSEGRLQADPQRFPHGIRQLANYVHSKGLKLGIYADVGNKTCAGFPGSFGYYDIDAQTFADWGVDLLKFDGCYCDSLENLADGYKHMSLALNRTGRSIVYSCEWPLYMWPFQKPNYTEIRQYCNHWRNFADIDDSWKSIKSILDWTSFNQERIVDVAGPGGWNDPDMLVIGNFGLSWNQQVTQMALWAIMAAPLFMSNDLRHISPQAKALLQDKDVIAINQDPLGKQGYQLRQGDNFEVWERPLSGLAWAVAMINRQEIGGPRSYTIAVASLGKGVACNPACFITQLLPVKRKLGLYEWTSRLRSHINPTGTVLLQLENTMQMSKDLLL
# modifications: Synthetic Polypeptide sequence of Variant No. 58 of mature Human GLA
# Experiments:
# Format in all cases: biochemical
# [1] = HTP-analysis of yeast culture supernatants, no challenge (MUGal hydrolysis); conditions: activity of the variant/activity of WT GLA (SEQ ID NO: 5), yeast supernatant
# Method in brief: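 Activity read as 4-methylumbelliferyl α-D-galactopyranoside hydrolysis: fluorescence (355/448 nm) after sodium carbonate stop, following 30-180 min at 37° C with 2 mM MUGal stock at pH 4.6–4.8. Enzyme source is unchallenged culture supernatant of INVSc1 yeast expressing GLA variants, grown 66-84 h at 30° C.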
# [2] = HTP-analysis of supernatants pretreated with acid (MUGal hydrolysis); conditions: challenge at pH 4.2; activity of the variant/activity of WT GLA (SEQ ID NO: 5); yeast supernatant
# Method in brief: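 GLA variants were secreted from INVSc1 yeast grown 66-84 h at 30° C. in SD-Ura with 2% glucose; supernatants were mixed with McIlvaine buffer pH 3.3-4.3 and held at 37° C. for 1-3 h. Residual activity on MUGal at pH 4.8 was then measured by fluorescence.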
# [3] = HTP-analysis of supernatants pretreated with base (MUGal hydrolysis); conditions: challenge at pH 7.1; activity of the variant/activity of WT GLA (SEQ ID NO: 5); yeast supernatant
# Method in brief: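 GLA variants were secreted by transformed INVSc1 yeast grown 66-84 h at 30° C. Supernatants were exposed to neutral-to-basic buffers (pH 7.0-9.7) at 37° C for 1-18 h, then assayed with MUGal in acidic citrate/McIlvaine buffer, with fluorescence read after quenching.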
Molecule,Relative Activity of GLA Variants After No Challenge (NC) [1],Relative Activity of GLA Variants After Challenge at pH 4.2 [2],Relative Activity of GLA Variants After Challenge at pH 7.1 [3]
B1,++ (++ = >1.5 to 2.5 relative activity over WT GLA (SEQ ID NO: 5)),++ (++ = >1.5 to 2.5 relative activity over WT GLA (SEQ ID NO: 5)),+ (+ = 0.5 to 1.5 relative activity over WT GLA (SEQ ID NO: 5))
B2,+ (+ = 0.5 to 1.5 relative activity over WT GLA (SEQ ID NO: 5)),++ (++ = >1.5 to 2.5 relative activity over WT GLA (SEQ ID NO: 5)),++ (++ = >1.5 to 2.5 relative activity over WT GLA (SEQ ID NO: 5))
B3,++ (++ = >1.5 to 2.5 relative activity over WT GLA (SEQ ID NO: 5)),+ (+ = 0.5 to 1.5 relative activity over WT GLA (SEQ ID NO: 5)),++ (++ = >1.5 to 2.5 relative activity over WT GLA (SEQ ID NO: 5))
B4,+ (+ = 0.5 to 1.5 relative activity over WT GLA (SEQ ID NO: 5)),+ (+ = 0.5 to 1.5 relative activity over WT GLA (SEQ ID NO: 5)),+ (+ = 0.5 to 1.5 relative activity over WT GLA (SEQ ID NO: 5))
B5,++ (++ = >1.5 to 2.5 relative activity over WT GLA (SEQ ID NO: 5)),++ (++ = >1.5 to 2.5 relative activity over WT GLA (SEQ ID NO: 5)),++ (++ = >1.5 to 2.5 relative activity over WT GLA (SEQ ID NO: 5))
B6,++ (++ = >1.5 to 2.5 relative activity over WT GLA (SEQ ID NO: 5)),+++ (+++ = >2.5 relative activity over WT GLA (SEQ ID NO: 5)),++ (++ = >1.5 to 2.5 relative activity over WT GLA (SEQ ID NO: 5))
B7,++ (++ = >1.5 to 2.5 relative activity over WT GLA (SEQ ID NO: 5)),++ (++ = >1.5 to 2.5 relative activity over WT GLA (SEQ ID NO: 5)),++ (++ = >1.5 to 2.5 relative activity over WT GLA (SEQ ID NO: 5))
B8,++ (++ = >1.5 to 2.5 relative activity over WT GLA (SEQ ID NO: 5)),++ (++ = >1.5 to 2.5 relative activity over WT GLA (SEQ ID NO: 5)),++ (++ = >1.5 to 2.5 relative activity over WT GLA (SEQ ID NO: 5))
